# Data published in publication PMC2913173 (Journal of molecular biology, 2009).
# eCPX = enhanced circularly permuted OmpX display protein
# Target: Bcl-xL (Homo sapiens, UniProt Q07817, DEL46-85)
# Experiment: Cell surface display equilibrium binding assay with flow cytometry
# Settings: cells displaying Bak–eCPX fusions, biotinylated Bcl-xL and SAPE
molecule,measurement,value
"Bak(24–117): construct containing amino acids 24–117 of Bak (helices α1 to α4), eCPX fusion (protein, left off: eCPX (enhanced circularly permuted OmpX display protein), C-terminal, kept) EEQVAQDTEEVFRSYVFYRHQQEQEAEGVAAPADPEMVTLPLQPSSTMGQVGRQLAIIGDDINRRYDSEFQTMLQHLQPTAENAYEYFTKIATS",Binding to Bcl-xL in words (fluorescence of cell population),essentially no binding to Bcl-xL
"Bak(24–89): eCPX fusion protein comprising helices α1, α2, and α3 of Bak (protein) EEQVAQDTEEVFRSYVFYRHQQEQEAEGVAAPADPEMVTLPLQPSSTMGQVGRQLAIIGDDINRRY-eCPX",Binding to Bcl-xL in words (fluorescence of cell population),fluorescence only slightly above background levels
